From paper PMC10663500, “High-throughput analysis system of interaction kinetics for data-driven antibody design” (Scientific Reports, 2023)
Changes are numbered by the printed parent chain.

B1: toripalimab Fab H.K63Y (Fab, V domains shown)
VH: QGQLVQSGAEVKKPGASVKVSCKASGYTFTDYEMHWVRQAPIHGLEWIGVIESETGGTAYNQYFKGRVTITADKSTSTAYMELSSLRSEDTAVYYCAREGITTVATTYYWYFDVWGQGTTVTVSS
VL: DVVMTQSPLSLPVTLGQPASISCRSSQSIVHSNGNTYLEWYLQKPGQSPQLLIYKVSNRFSGVPDRFSGSGSGTDFTLKISRVEAEDVGVYYCFQGSHVPLTFGQGTKLEIK
notes: heavy chain of Sm3 with this change; numbers count from the chain's first residue; as the light chain of Sm3; source: Brevibacillus, culture supernatant (ammonium sulfate precipitate); not shown: 6xHis, C-terminal, kept; 6xHN, C-terminal, kept
B2: toripalimab Fab H.F64Y (Fab, V domains shown)
VH: B1 VH with Y63K, F64Y
VL: B1 VL
notes: as for B1
B3: toripalimab Fab H.G66Y (Fab, V domains shown)
VH: B1 VH with Y63K, G66Y
VL: B1 VL
notes: as for B1
B4: toripalimab Fab H.K65Y (Fab, V domains shown)
VH: B1 VH with Y63K, K65Y
VL: B1 VL
notes: as for B1
B5: toripalimab Fab H.G100A (Fab, V domains shown)
VH: B1 VH with Y63K, G100A
VL: B1 VL
notes: as for B1
B6: toripalimab Fab H.V104A (Fab, V domains shown)
VH: B1 VH with Y63K, V104A
VL: B1 VL
notes: as for B1
B7: toripalimab Fab H.E33A (Fab, V domains shown)
VH: B1 VH with E33A, Y63K
VL: B1 VL
notes: as for B1
B8: toripalimab Fab H.K65A (Fab, V domains shown)
VH: B1 VH with Y63K, K65A
VL: B1 VL
notes: as for B1
B9: toripalimab Fab H.V104Y (Fab, V domains shown)
VH: B1 VH with Y63K, V104Y
VL: B1 VL
notes: as for B1
B10: toripalimab Fab H.F64A (Fab, V domains shown)
VH: B1 VH with Y63K, F64A
VL: B1 VL
notes: as for B1
B11: toripalimab Fab H.G66A (Fab, V domains shown)
VH: B1 VH with Y63K, G66A
VL: B1 VL
notes: as for B1

What follows are binders tested against T1, human programmed cell death protein 1 (hPD-1) C93S (aa 24-167) (Homo sapiens, UniProt Q15116, C93S) (assay: SPR; Carterra LSA; Fab from the ammonium sulfate precipitate of the culture supernatant immobilised on a NiHC200M chip; hPD-1 (1-1024 nM) or mPD-1-Fc (4-1024 nM) as analyte, fourfold dilution series, no regeneration; HBS-EP pH 7.4, 25 °C; medians over the spots of a construct, KD = koff/kon). Conditions: one partner purified.
T1 construct: made as a fusion with a TEV site and human Fc; the Fc was cut off with TEV protease; source: Expi293F, purified (Protein A, TEV cleavage of Fc, SEC; monomer fractions); not shown: Fc (human), C-terminal, cleaved
T1 sequence (Q15116 24-167 C93S): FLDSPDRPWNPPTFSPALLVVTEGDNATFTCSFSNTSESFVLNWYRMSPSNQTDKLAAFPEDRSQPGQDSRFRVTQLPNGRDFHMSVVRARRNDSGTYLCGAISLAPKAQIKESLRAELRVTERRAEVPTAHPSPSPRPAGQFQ
Summary of the method: (§1)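 Human PD-1 (1–1024 nM) or mouse PD-1-Fc (4–1024 nM), in fourfold series, was flowed without regeneration over Fabs captured in duplicate on a NiHC200M chip (Carterra LSA, 25 °C), using 10 min association and 5 min dissociation. The Fabs had been recovered from Brevibacillus culture supernatants by ammonium sulfate precipitation and redissolved in HBS-EP. For binding constants, KD was defined as koff/kon from per-construct medians, with rates fitted by the kdka model under slow- or fast-dissociation settings (best fit) and unconfirmed binders set to kon 10^3 […] and koff 10^−2 s^−1.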
B1 was tested, and the Kd was under 0.226 nM, the koff was under 1e-05 s⁻¹ and the kon was 44300 M⁻¹ s⁻¹. With B2 the Kd was 1.17 nM, the koff was 3.98e-05 s⁻¹ and the kon was 34200 M⁻¹ s⁻¹. B3 showed a Kd of under 0.85 nM, a koff of under 1e-05 s⁻¹ and a kon of 11800 M⁻¹ s⁻¹. B4 was tested, and the Kd was 1.14 nM, the koff was 1.86e-05 s⁻¹ and the kon was 16300 M⁻¹ s⁻¹. Binder B5 has a Kd of 0.593 nM, a koff of 1.42e-05 s⁻¹ and a kon of 23900 M⁻¹ s⁻¹. B6 gave a Kd of 4.51 nM, a koff of 8.98e-05 s⁻¹ and a kon of 19900 M⁻¹ s⁻¹. With B7 the Kd was 1.37 nM, the koff was 1.31e-05 s⁻¹ and the kon was 9540 M⁻¹ s⁻¹. In the case of B8, the Kd is reported as under 1.5 nM, the koff is reported as under 1e-05 s⁻¹ and the kon is reported as 6670 M⁻¹ s⁻¹. In the case of B9, the Kd is reported as 1.17 nM, the koff is reported as 1.81e-05 s⁻¹ and the kon is reported as 15500 M⁻¹ s⁻¹. Work on B10 yielded a Kd of under 1.4 nM, a koff of under 1e-05 s⁻¹ and a kon of 7170 M⁻¹ s⁻¹. Work on B11 yielded a Kd of under 1.56 nM, a koff of under 1e-05 s⁻¹ and a kon of 6410 M⁻¹ s⁻¹.

Each binder was assayed against T2, mouse programmed cell death protein 1 Fc fusion protein (mPD-1-Fc), mPD-1 C60S (aa 25-167) (Mus musculus, UniProt Q02242, stabilised) in the same assay as above. Conditions: one partner purified.
T2 construct: not cleaved; source: Expi293F, purified (Protein A, SEC; dimeric fraction); not shown: Fc (human), C-terminal, kept
Summary of the method: as §1
For B1, the Kd was 75.7 nM, the koff was 0.00458 s⁻¹ and the kon was 60400 M⁻¹ s⁻¹. B2 gave a Kd of 36.3 nM, a koff of 0.00224 s⁻¹ and a kon of 61600 M⁻¹ s⁻¹. Work on B3 yielded a Kd of 393 nM, a koff of 0.0111 s⁻¹ and a kon of 28100 M⁻¹ s⁻¹. Work on B4 yielded a Kd of 299 nM, a koff of 0.012 s⁻¹ and a kon of 40300 M⁻¹ s⁻¹. Binder B5 has a Kd of 464 nM, a koff of 0.0353 s⁻¹ and a kon of 76100 M⁻¹ s⁻¹. Binder B6 has a Kd of 81.5 nM, a koff of 0.00354 s⁻¹ and a kon of 43400 M⁻¹ s⁻¹. For B7, the Kd was 103 nM, the koff was 0.00372 s⁻¹ and the kon was 36200 M⁻¹ s⁻¹. Work on B8 yielded a Kd of 257 nM, a koff of 0.00911 s⁻¹ and a kon of 35400 M⁻¹ s⁻¹. B9 was tested, and the Kd was 96.2 nM, the koff was 0.00366 s⁻¹ and the kon was 38000 M⁻¹ s⁻¹. B10 was tested, and the Kd was 59.7 nM, the koff was 0.00193 s⁻¹ and the kon was 32400 M⁻¹ s⁻¹. With B11 the Kd was 223 nM, the koff was 0.00674 s⁻¹ and the kon was 30200 M⁻¹ s⁻¹.
